Values belong to the binder of their own block, whether it stands above or below them.
What was measured:
[1] = biological target: T1, CD3d (CD3 delta) peptide on HLA-A*02:01 (human); experiment: cytokine release
T1 peptide: LALGVFCFA

[2] = biological target: T2, CD3d (CD3 delta) peptide on HLA-A*02:01 (human); experiment: cytokine release
T2 peptide: LLALGVFCFA

[3] = biological target: T3, CD81 (CD81 antigen) peptide on HLA-A*02:01 (human); experiment: cytokine release
T3 peptide: QCLLGTFFTC

[4] = biological target: T4, CSF3R (Granulocyte colony stimulating factor receptor) peptide on HLA-A*02:01 (human); experiment: cytokine release
T4 peptide: HIILGLFGLL

[5] = biological target: T5, CRLS1 (cardiolipin synthase) peptide on HLA-A*02:01 (human); experiment: cytokine release
T5 peptide: NIALGVFALA

[6] = biological target: T6, EPB42 (Erythrocyte membrane protein band 4.2) peptide on HLA-A*02:01 (human); experiment: cytokine release
T6 peptide: QLLLGQFTLL

[7] = biological target: T7, INGR2 (Interferon gamma receptor 2) peptide on HLA-A*02:01 (human); experiment: cytokine release
T7 peptide: LLLLGVFAAA

[8] = biological target: T8, survivin, heteroclitic variant 97M peptide on HLA-A*02:01 (human); experiment: 4-hour 51Cr release, 50% lysis at E:T 10:1, clone #24 against LML-pulsed T2 cells, peptide titration; T cell clone or line
T8 peptide: LMLGEFLKL

[9] = biological target: T9, survivin peptide on HLA-A*02:01 (human); experiment: 51Cr release, clone #24 against ELT-pulsed T2 cells, E:T 10:1, peptide titration (avidity as defined in Table 1); T cell clone or line
T9 peptide: ELTLGEFLKL

[10] = biological target: T8, survivin, heteroclitic variant 97M …; experiment: 4-hour 51Cr release, 50% lysis at E:T 10:1, LML-pulsed T2 cells; value given for a published TCR (Leisegang et al. 2010); T cell clone or line
[11] = biological target: T9, survivin peptide on HLA-A*02:01; experiment: killing
[12] = biological target: T10, survivin ELT, alanine substitution at position 3 (residues not given, written out from the filing's … (human)); experiment: cytokine release
T10 peptide: ELALGEFLKL

[13] = biological target: T11, survivin ELT, alanine substitution at position 5 (residues not given, written out from the filing's … (human)); experiment: cytokine release
T11 peptide: ELTLAEFLKL

binding result [1]: no recognition | binding result [2]: no recognition | binding result [3]: no recognition | binding result [4]: no recognition | binding result [5]: no recognition | binding result [6]: no recognition | binding result [7]: no recognition
B1: s24-TCR (TCR, V domains shown)
Valpha: GESVGLHLPTLSVQEGDNSIINCAYSNSASDYFIWYKQESGKGPQFIIDIRSNMDKRQGQRVTVLLNKTVKHLSLQIAATQPGDSAVYFCAETVTDSWGKLQFGAGTQVVVTP
Vbeta: DAMVIQNPRYQVTQFGKPVTLSCSQTLNHNVMYWYQQKSSQAPKLLFHYYDKDFNNEADTPDNFQSRRPNTSFCFLDIRSPGLGDAAMYLCATSRGDSTAEPQHFGDGTRLSIL
EC50 of peptide [8]: 50 nM | EC50 of peptide [9]: 1000 nM

B2: A66 (TCR)
alpha TRAV13-1*02 TRAJ39*01 CDR3: CAARAGNMLTF
beta TRBV30*01 TRBJ2-7*01 CDR3: CAWGTGLALYEQYF
EC50 of peptide [10]: 50 nM

binding result [1]: recognises | binding result [2]: no recognition | binding result [3]: recognises | binding result [4]: no recognition | binding result [5]: no recognition | binding result [6]: no recognition | binding result [7]: no recognition
B3: A72-TCR (TCR)
Valpha: AQKITQTQPGMFVQEKEAVTLDCTYDTSDQSYGLFWYKQPSSGEMIFLIYQGSYDEQNATEGRYSLNFQKARKSANLVISASQLGDSAMYFCAMREGGGYNKLIFGAGTRLAVHP
beta TRBV30*02 TRBJ1-1*01 CDR3: CAGQDLNTEAFF
binding result [11]: recognises | binding result [12]: recognises | binding result [13]: recognises | EC50 of peptide [10]: 0.05 nM

Reference: patent publication US20170335290A1 (published 2017)
